The record followed here is the nanobody polyreactivity screen of Harvey et al. (2022).

The series is described as follows: yeast display, Sf9 membrane polyspecificity reagent, FACS + sequencing; frameworks hold sequencing errors. In outline: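 Genes from sorted yeast were amplified by colony PCR, read by MiSeq 2 × 250 sequencing and filtered on CDR length. These cells carried a synthetic nanobody library in Saccharomyces cerevisiae BJ5465 and were sorted by FACS into low and high (top ~1%) gates on anti-HA and streptavidin fluorescence. Polyreactivity is labelled according to the gate of origin.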
As to “QVQLVESGGGLVQAGGSLRLSCAASGSIFARYAMGWYRQAPGKERELVAAISSNSASTYYADSVKGRFTISRDNAKNTVYLQMNSLKPEDTAVYYCATAYRSYWLNDYWGQGTQVTVSS”, the “polyreactivity (PSR sort gate)” value was “low polyreactivity”.
As for “QVQLVESGGGLVQAGGSLRLSCAASGRIILLYTMGWYRQAPGKERELVAAISRSGGITYADSVKGRFTISRDNAKNTVYLQMNSLKPEDTAVYYCAKGGSSHAKGHFDYWGQGTQVTVSS”, the “polyreactivity (PSR sort gate)” value is listed as “low polyreactivity”.
As for “QVQLVESGGGLVQAGGSLRLSCAASGSTFGYYAMGWYRQAPGKERELVAAISYIGGSTYYADSVKGRFTISRDNANNTDYLQMNSQKPEDTAVYYCAAQYVTYAYDYWGQGTQVTVSS”, the entry is “low polyreactivity”; as for “QVQLVESGGGVVQAGGSLRLICAASGSTFGVYAMGWYRQAPGKERELFASISESGGNTYYADSVKGRFTISRDNAKNTVYLQMNSLKPDDTAVYYCNTDVVDVHYIQAYYWGQVTQVTVSS”, “low polyreactivity”; as for “QVQLVESGGGLVQAGGSLRLSCAASGRIFTRNVMGWYRQAPGKERELVAAITTNGGSTYYADSVKGRFTISRDNAKNTVYLQMNSLKPEDTAVYYCAKRTVHYTWVYYWGQGTQVTVSS”, “high polyreactivity”.
Then “QVQLVESGGGLVQAGGSLRLSRAATGSIIASYAMGWYRQAPGKERELVSAISARGGSTYYADSVKGRFTISRDNAKNTVYLQMNSLKPEDTAVYSCAARHQQGRRISDYGYWGQGTQVTVSS”, with “high polyreactivity”; and “QVQLVESGGGLVQAGGSLRLSCAASGSIFKTYAMGWNRQAPGKEREFVARITSSGGRTYYADSVKGRFTISRDNAKNTVYLQMNSLKPEDTAVYYCAKPYPRGYTTYSYDYWGQGTQVTVSS”, with “high polyreactivity”.
As for “QVQLVESGGGLVQAGGSLRLSCAASGNIFDEYTMGWYRQAPWKERELVAAINSGGSTDYADSVKGRFTISRDNAKNTVYLQMNSLKPEDTAVYYCARDVWPTKIQQQPGYGRGEYWGQGTQVTVSS”, the entry is “low polyreactivity”; as for “QVQLVESGGGLVQAGGSLRLSCAASGTILRPYAMGWYRQAPGKERELVAAISTSGGRTFYADSVKGRFTISRDNAKNTVYLQMYSLNPEDTAVYYCAAVGYRFGSNYWGQGTQVTVSS”, “high polyreactivity”; as for “QVQLVESGGGLVQAGGSLRLSCAASRRTFYYAMGWYRQAPWKERYADSVKGRFTISRDNAKNTVYLQMNSLKPVDTAVYYCAAKVPEPPSLDESDYWGQGTQVTVSS”, “low polyreactivity”.
“QVQLVESGGGLVQAGGSLRLSCDASGGIFRFNSMGWYRQAPGKERELVAGISSTYYADSVKGRFTISRDNAKNTVYLQMNSLKPEDTAVYYCAAAGPEEHGYTYPGNNQMESWGQGTQVTVSS”: the “polyreactivity (PSR sort gate)” value is “low polyreactivity”.
Then “QVQLVESGGGLVQAGGSLRLSCAASGSIFGWNTMGWYRQAPGKERELVAAITWTGGRTYYADSVKGRFTISRDNAKNTVYLQMNSLKPEDTAVYYCNALRVIRGGIKGDYWGQGTQVTVSS”, with “high polyreactivity”; and “QVQLVESGGGLVQAGGSLRLSCAASGSTSVYYAMGWYRQTPGKERELVAAINWNGGRTYYADSVKGRFTISRDNAKNTVYLQMNSLKPEDTAVYYCATDSGDGEGDYWGQGTQVTVSS”, with “low polyreactivity”.
As for “QVQLVESGGGLVQAGGSLRLSCAASGYTFSDNAMGWYRPAPGKERELVAAITSGVSTYYADSVKGRFRISRDNAKNSVYLQMNSLNPEDTAVYYCAAEPDTYWYTYDYWGQGTQVTVSS”, the entry is “low polyreactivity”; as for “QVQLVESGGGLFQAGGTLRLSCAASGRIFVYYAMGWYRQAPGKERELVASITTGGRTYYADSVKGRFTISRDNAKNTVYLQMNSLKPEDTAVYYCAARKYSYTWYDYWGQGTQVTVSS”, “high polyreactivity”; as for “QVQLVESGGGLVQAGGSLRLSCAASGRIFRLYTMGWYRPAPGKERELVAAISGSGGRTYYADSVKGRFTISRDNAKNTVYLQMNSLKPEDTAVYYCAKVGYKSPYLYSQHYTGFGYWGQGTQVTVSS”, “high polyreactivity”.
Then “QDQLVDSGVGLVQAGGSLRLSCAASGLIFGRNVMGWYRQAPGKERELVAAISWSGGRTYYADSVKGRFTISRDNAKNTVYLQMNSLKPEDTAVDYCATDRSTRTYRSPYDYWGQGTQVTVSS”, with “high polyreactivity”; and “QVQLVESGRGLVQAGGSLRLSCAASGFIFRYYAMGWYRQAPGKERELVAAINASGGRTYYADSVKGRFTISRDNARNSVYLQMNSLKPEDTAVYYCAAYRSYQTFDYWGQGTQVNVSS”, with “high polyreactivity”; and “QVQLVESGGGLVQAGGSLRLSCAASGSIFASNAMGWYRQAPGKEREFVAAITWRTDRTYYADSVKGRFTISRDNAKNTVFLQMNSLKPEDTAVYYCAADTWFYRFYYWGQCTQVTVSS”, with “high polyreactivity”.
Take “QVQLVESGGGLVQAGGSLRLSCAASGRILYNYAMGWYRQAPGKERELVAAISSGGSTNYADSVKGRFTISRDNAKNTVYLQMNSLKPEDTAVYYCAAYRGHSWRGLYRWSDYDYWGQGTQVTVSS”: the “polyreactivity (PSR sort gate)” value is reported as “low polyreactivity”.
“QVPLVESGGGLVQAGGSLRLSCAASGRIFLRYDIGWYRKAPGKERELVAAIPRSGGSTYYADSVKGRFTISRDNAKNTVYLQMNSLKPEDTAVYYCAARRWGRVYTTYTGGYWGQGTQVTVSS”: the “polyreactivity (PSR sort gate)” value is reported as “high polyreactivity”.
As for “QVQLVESGGGLVQAGGSLRLSCAASGRTFPGNAMGWYRQAPGKERELVAAITSSGSTNYADSVKGRFTISRDNAKNTVYLQMNSLKPEDTAVYYCNAAWFYVYGVWILDWGQGTQVTVSS”, the entry is “low polyreactivity”; as for “QVQLVESGGGLVQAGGSLRLSCAASGRILAGYAMGWYRQAPGKERELVAAITRGGTTYYADSVKGRFTISRDNAKNSVYLQMNSLKPEDTAVVYTVSSAQYDYCGQGTQVTVSS”, “low polyreactivity”; as for “QVQLVESGGGLVQAGGSLRLRCAASGISFRRNVMGWCRQAPGKERELVARISRAGSTKYADSVKGRFTISRDTAKNTVYLQMTSLKPEDTAVYYCNKVTRRNGQPYDYWGQGTQVTVSS”, “high polyreactivity”.
As for “QVQLVESGGGLVQAGGSLRLSCAASGSTFNPYTMGWPRQAPGKERELVATITRIGGSTYYADSVKGRFTISRDNAKNTVDLQMNSLKPEDNAVYYCAADHYRSVRWRSDYTYRVNYWGQGTQVTVSS”, the “polyreactivity (PSR sort gate)” value is recorded as “high polyreactivity”.
Turning to “QVQLVESGGGLVQAGGSLRLSCAASGSIFFVYGMGWYRQAPGKERELVAAISGGITNYADSVKGRFTISRDNAKNTVNLQMNSLKPEDTAVYYCAAYTPSYGGRDYWGQATQVTVSS”, the “polyreactivity (PSR sort gate)” value is on record as “low polyreactivity”.
As for “QLQLVESGGGLVQAGGSLRLSCAASGNTFYGYTMGWYRQAPGTERELVAVISSSGGRTNYADSVKGRFTISRDNAKNTVYLQMNSLKPEDTAVYYCAARSSRLPHIYGYWGQGTQVTVSS”, the entry is “low polyreactivity”; as for “QVQLVESGGGLVQTGGSLRLSCAASGSTFEYNAMGWYRQAPGKERELVAAITWTGGSRYYADSVKGRFTISRDNAKNSVYFQMNSLKPEDTAVYYCNAVSYVDIWDDRRYYYWGQGTQVTVSS”, “low polyreactivity”.
As for “QVQLVESGGGLVQAGGSLRLSCAASGFTFYWNAMGWSRQAPGKERELVAAINGGDSTNYADSVKGRFTISRDNAKNTVYLQMNSLKPEDTAVYYCAAEPSLEAWTAFGSYYWGQGTQVTVSS”, the entry is “low polyreactivity”; as for “QVQLVESGGGLVQAGGSLRLSCAASGRILWNAMGWYRQAPGKERELVAGITYSGGSTYYADSVKGRFTISRDNAKNTVYLQMNSLKPEDTAVYYCNAGVGARESDYWGQGTQVTVSS”, “low polyreactivity”; as for “QLQLVKSWGGLVQAGGSLRLSSAASGLTFELYDMGWYRQAPGKERELVAAIDWSATRTYYADSVKGRFTISRDNAKNTVYLQMNSLKPEDTEVYYCNAEAVYEYWIYDYWGQGTQVTVSS”, “high polyreactivity”.
As for “QVQLVESGGGLVHAGGSLRLSCAASGNIFRYNAMGWYRQAPGKERELVAAISSVGTTNYADSVKGRFTISRDNAKNTVYLQMNSLKPEDSAVYYCAAVAFQGGYWYDYWGQGTQVTVSS”, the entry is “low polyreactivity”.
As for “QFQLVESGGCLVQAGGSLRISSASSGSTLANYAMGWYRQAPGKEREFVAAINSGGSTYYADSVKGRFTISRDIAKNTVYLQMNSLKPEDTAVYYCAARYASPRYKSKMDYWGQGTQVTVSS”, the “polyreactivity (PSR sort gate)” value was “high polyreactivity”.
With “QVQLVESGGGLVQAGGSLRLSCAPSGRTFWAYAMGWYRQAPGKERELVAAITTSGGSTNYADSVKGRFTISRDNAKNTVYLQMNSLKPEDTAVYYCNADPTYHVVNGVGYWGQGTQVTESS”, the “polyreactivity (PSR sort gate)” value was “low polyreactivity”.
As for “QVQLVESAGGLVQAGGSLSLICAASGIIFGGNAMGWSRQAPGKERELVAAISRSGGSTYYADSVKGRFTISRDNAKNTVYLQMTSLKPEDTAVYYCNAYYRYFRSIYDSCGQGTQVTVSS”, the entry is “high polyreactivity”.
Turning to “QDQLVESGGGLVQAGGSLRLSCAASGSIFGGYGMGWYRQAHGKERELVAAITSGSSTYYADSVKGRFTISRDNAKNTVYLQMNSLKPEDTAVYYCAARPYPNSAYEGDYWGRGTQVTVSS”, the “polyreactivity (PSR sort gate)” value was “low polyreactivity”.
On to “QVQLVESGGGLVQAGGSLRLSCAASGYTFRYYGMGWYRQAPGNERELVADINSNGVRTYYADSVKGRFTISRDNAKNTVYVQMNSLKPEDTAVYYCNKDWGRYRYDYWGQGTQVTVSS”, for which the “polyreactivity (PSR sort gate)” value was “high polyreactivity”.
In the case of “QVQLVESGGGLVQEGGSLRLSCAASGITFDYYAMGLYRQAPGKERELVASISYSGGSTYADSVKGRFTISRDNAKNTVYLQMNSLKPEDTAVYYCAKDSQETAYNTVDYCGQGTQVTVSS”, the “polyreactivity (PSR sort gate)” value is “low polyreactivity”.
Then “QVQLVESGGGLVQAGGSLRLSCAASGNTFSPYAMGWYRQAPGKERELVAAITFRGGSTYYADSVKGRFTISRDNAKNTVYLQMNSLKPEDTAVYYCNAERGGWSGYFGYDYWGQGTQVTVSS”, with “low polyreactivity”; and “QVQLVESGGGLVQAGGSLRLSCAASGRTFYGYAMGWYRQAPGKERELVAAITSSGGSTYYADSVKGRFTISRDNAKNTVYLQMNSLKPEDTAVYYCAKTSRYLTGGGDYWGQGTQVTVSS”, with “high polyreactivity”.
As for “QVQLQESGGGLVQAGGSLRQSYAASGYIFPSLAMGWYRQAPGKEREFVAAIGRGSTNNYADSVKGRFTISRDNAKKTAYQQMNSLKPEDTAVYYCAAAASPLTRHLYWGQGTQVTVSS”, the entry is “low polyreactivity”.
